Results published in patent US20240280570A1.
Where two headings read alike, the source gives them in different places.

Tests used:
[1] = target: SARS-CoV-2 RBD (Sino Biological 40592-V08H); Spike Receptor Binding Domain residues R319 - F541 His tagged (SARS-CoV-2) (UniProt P0DTC2); assay: OECT sensor, PEDOT:PSS channel, nanobody on gate, target in buffer
[2] = target: SARS-CoV-2 RBD (Sino Biological 40592-V08H); Spike Receptor Binding Domain residues R319 - F541 His tagged (SARS-CoV-2) (UniProt P0DTC2)
[3] = target: SARS-CoV-2 RBD (Sino Biological 40592-V08H); Spike Receptor Binding Domain residues R319 - F541 His tagged (SARS-CoV-2) (UniProt P0DTC2); remark: listed apart in the source

## VHH72-8 aa-spyCatcher-3C cleavage site-His8
[1]
  LOD: 0.024 pM
[2]
  LOD: 0.048 pM
[3]
  LOD: 0.023 pM
